Data published in patent publication CN1869207A (INST OF BIOPHYSICS CAS, dated 2006).
“And” between values parts separate entries of the source, which are not always exact repeats. Equal values may be shown once.

T1: 大肠杆菌表达的GST-MIF重组蛋白 (human, UniProt P14174 1-115)
T1 construct: Coating antigen (10 ug/ml) of the ELISA that gave all the dissociation constants; GST is placed N-terminal by the name GST-MIF; also called 人MIF; not shown: GST tag and vector-encoded residues from pET-41a
T1 sequence (looked up): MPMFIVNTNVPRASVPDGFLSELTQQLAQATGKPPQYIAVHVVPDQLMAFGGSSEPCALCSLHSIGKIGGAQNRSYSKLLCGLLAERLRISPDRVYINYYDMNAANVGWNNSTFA


Columns and labels:
大肠杆菌表达的GST-MIF重组蛋白 [1] = biological target: T1, 大肠杆菌表达的GST-MIF重组蛋白; test: ELISA on coated GST-MIF (10 ug/ml); antibody concentration at 50% of the maximal reading is taken as the dissociation constant
大肠杆菌表达的GST-MIF重组蛋白 [2] = biological target: T1, 大肠杆菌表达的GST-MIF重组蛋白; test: ELISA by the method of Example 1 (coated GST-MIF; concentration at 50% of the maximal reading)

Kd (大肠杆菌表达的GST-MIF重组蛋白 [1]) | Kd (大肠杆菌表达的GST-MIF重组蛋白 [2]) | Binder
3 nM and 0.48 µg/mL |  | 杂交瘤细胞株10C3 CGMCC No.1717分泌的单克隆抗体 (antibody, mouse IgG2b, V domains shown, the mouse constant regions are not; Hybridoma supernatant was used in the ELISA and ascites-purified antibody in the cell assays; also called 10C3Ab; anti-MIF) VH: QVQLEESGGALVKPGGSLKLSCAASGFTFSTYAMSWVRQTPEKRLEWVATISSGGDYTHYPDSVKGRFTISRDNARNTLYLQMSSLRSEDTAMFYCARPYYGSSYWFYDVWGAGTTVTVSS VL: DIVLTQTPVSIIASRGEKVTITCRARSSISSTYLHWYQQKPGSSPKLLIYRTSILASGVLDSFSGSGSETSDTLTISCMQDEVAATYYCQQGSSSPLTFGAGTKLELKR
 | 3 nM | 人-鼠嵌合抗体ch-10C3 (antibody, V domains shown) VH: QVQLEESGGALVKPGGSLKLSCAASGFTFSTYAMSWVRQTPEKRLEWVATISSGGDYTHYPDSVKGRFTISRDNARNTLYLQMSSLRSEDTAMFYCARPYYGSSYWFYDVWGAGTTVTVSS VL: DIVLTQTPVSIIASRGEKVTITCRARSSISSTYLHWYQQKPGSSPKLLIYRTSILASGVLDSFSGSGSETSDTLTISCMQDEVAATYYCQQGSSSPLTFGAGTKLELKR
 | 10 nM | 抗MIF的Fab片段10C3Fab (Fab, V domains shown) VH: QVQLEESGGALVKPGGSLKLSCAASGFTFSTYAMSWVRQTPEKRLEWVATISSGGDYTHYPDSVKGRFTISRDNARNTLYLQMSSLRSEDTAMFYCARPYYGSSYWFYDVWGAGTTVTVSS VL: DIVLTQTPVSIIASRGEKVTITCRARSSISSTYLHWYQQKPGSSPKLLIYRTSILASGVLDSFSGSGSETSDTLTISCMQDEVAATYYCQQGSSSPLTFGAGTKLELKR
 | 30 nM | 抗MIF单链抗体10C3scFV (scFv, Heavy and light variable regions joined by a 15-residue Gly/Ser-rich linker; Expressed from pET-26b in BL21 with a 6xHis tag) scFv: QVQLEESGGALVKPGGSLKLSCAASGFTFSTYAMSWVRQTPEKRLEWVATISSGGDYTHYPDSVKGRFTISRDNARNTLYLQMSSLRSEDTAMFYCARPYYGSSYWFYDVWGAGTTVTVSSGSSGSGSSGSGSSGSDIVLTQTPVSIIASRGEKVTITCRARSSISSTYLHWYQQKPGSSPKLLIYRTSILASGVLDSFSGSGSETSDTLTISCMQDEVAATYYCQQGSSSPLTFGAGTKLELKR
